In assay [1] the target is CD28 (human) (UniProt P10747).
In assay [2] the target is PD-L1 (human) (UniProt Q9NZQ7).
In assay [3] the target is CD28 (human) (UniProt P10747). This is another data set of the same source.
Assay [4] addresses PD-L1 (human) (UniProt Q9NZQ7). The source holds these as a separate data set.
Assay [5] deals with human CTLA-4 (human) (UniProt P16410). Nature of the assay: flow cytometry, CHO cells expressing huCTLA4.
Assay [6] has as its target PD-L1 (human) (UniProt Q9NZQ7). Nature of the assay: flow cytometry, CHO cells expressing huPD-L1. A general note: Flow cytometry measures light scatter and fluorescence of single cells or particles in a stream.
Assay [7] has as its target CD28 (human) (UniProt P10747). Put plainly: flow cytometry, Jurkat/IL2 reporter cells (endogenous CD28).
The target of assay [8] is human CTLA-4 (human) (UniProt P16410). Nature of the assay: flow cytometry, CHO cells expressing CTLA4.
Assay [9] deals with PD-L1 (human) (UniProt Q9NZQ7). Nature of the assay: flow cytometry, MFI on PD-L1 over MFI on CD28.
In assay [10] the target is PD-L1 (human) (UniProt Q9NZQ7). Put plainly: flow cytometry, CHO cells expressing PD-L1.
Assay [11] deals with CD28 (human) (UniProt P10747). Put plainly: flow cytometry, Jurkat cells (CD28).
Assay [12] deals with PD-L1 (human) (UniProt Q9NZQ7). Nature of the assay: flow cytometry, CHO cells expressing huPD-L1. This is another data set of the same source.
Assay [13] addresses CD28 (human) (UniProt P10747). Put plainly: flow cytometry, Jurkat/IL2 reporter cells (CD28).
The target of assay [14] is human CTLA-4 (human) (UniProt P16410). Nature of the assay: flow cytometry, CHO cells expressing huCTLA-4.

The values that follow come from patent publication US20220177587A1, “METHODS AND USES OF VARIANT CD80 FUSION PROTEINS AND RELATED CONSTRUCTS” (Alpine Immune Sciences, Inc., priority 2018, published 2022).

Sequence of PD-L1 (human) (Q9NZQ7 19-290): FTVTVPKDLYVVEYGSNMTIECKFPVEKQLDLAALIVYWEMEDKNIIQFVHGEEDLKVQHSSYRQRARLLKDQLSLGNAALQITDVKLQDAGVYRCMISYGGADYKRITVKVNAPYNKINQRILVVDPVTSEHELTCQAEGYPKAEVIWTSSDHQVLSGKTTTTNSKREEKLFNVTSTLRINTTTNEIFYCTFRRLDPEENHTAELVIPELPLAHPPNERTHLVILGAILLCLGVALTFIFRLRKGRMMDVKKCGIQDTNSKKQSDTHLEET
Sequence of human CTLA-4 (human) (P16410 36-223): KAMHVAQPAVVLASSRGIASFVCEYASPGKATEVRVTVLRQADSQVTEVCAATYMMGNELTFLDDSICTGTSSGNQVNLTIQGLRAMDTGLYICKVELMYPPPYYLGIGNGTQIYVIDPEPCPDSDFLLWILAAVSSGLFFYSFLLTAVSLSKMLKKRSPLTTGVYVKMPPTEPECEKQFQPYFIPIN

“CD80 E35D/M47I IgV-Fc (inert) (Fc fusion)”: the Jurkat/IL2 reporter RLU at 50 nM, CHO/OKT3/PD-L1 aAPC with CD28 (human) [1] and in the assay with PD-L1 (human) [2] was 3780 RLU in each case. The Jurkat/IL2 reporter RLU at 50 nM, CHO/OKT3 aAPC without PD-L1 with CD28 (human) [1] turned out to be 894 RLU. Besides, the IL-2 release, primary T cells + K562/OKT3/PD-L1, 100 nM with CD28 (human) [3] and with PD-L1 (human) [4] was 8310 in each case.

For the substance “variant CD80 IgV-Fc E35D/M47I/K54R/L85E (Fc fusion)”, the MFI at 33.3 nM in the assay with human CTLA-4 (human) [5] stood at 8660 MFI; with PD-L1 (human) [6], 36900 MFI.

For the substance “variant CD80 IgV-Fc Q33L/E35D/M47V/T79A (Fc fusion)”, the MFI at 33.3 nM in the assay with human CTLA-4 (human) [5] was found to be 28900 MFI; in the assay with PD-L1 (human) [6] it was 62100 MFI.

Regarding “variant CD80 IgV-Fc E35D/M47V/T62A/A71G/V83A/Y87H/L97M (Fc fusion)”, the figures for the MFI at 33.3 nM with CD28 (human) [7], with human CTLA-4 (human) [5] and with PD-L1 (human) [6] were 305 MFI, 18100 MFI and 77500 MFI, respectively.

On to “CD80 E24D/E35D/M47L/V68M/E95V/L97Q IgV-Fc (Fc fusion)”, for which the Fold change to WT CD80 in the assay with human CTLA-4 (human) [8] is 8.8 fold; with PD-L1 (human) [10], 362 fold; with CD28 (human) [11], 0.5 fold. For the same substance, the MFI at 33.3 nM with human CTLA-4 (human) [8] worked out at 15500 MFI; with PD-L1 (human) [10], 18600 MFI; with CD28 (human) [11] it was 15 MFI. Moreover, in the assay with PD-L1 (human) [9], the Ratio of PDL1:CD28 worked out at 1270.

On to “CD80 H18Y/E35D/D46E/M47I/V68M/R94L IgV-Fc (Fc fusion)”, for which the Fold change to WT CD80 is 13.3 fold in the assay with human CTLA-4 (human) [8], 365 fold with PD-L1 (human) [10] and 7.8 fold in the assay with CD28 (human) [11]. For the same substance, the MFI at 33.3 nM was 23300 MFI with human CTLA-4 (human) [8], 18800 MFI with PD-L1 (human) [10] and 244 MFI in the assay with CD28 (human) [11]. For the same substance, the Ratio of PDL1:CD28 with PD-L1 (human) [9] amounted to 77.1.

As for “variant CD80 IgV-Fc E35D/M47L/L85Q (Fc fusion)”, the MFI at 33.3 nM came out at 6100 MFI in the assay with PD-L1 (human) [12]; 46.3 MFI with CD28 (human) [13]; 646 MFI with CD28 (human) [7]; 336000 MFI with human CTLA-4 (human) [5]; 33200 MFI in the assay with PD-L1 (human) [6]; 12900 MFI in the assay with human CTLA-4 (human) [14].

Turning to “variant CD80 IgV-Fc E24D/Q33L/E35D/M47V/K54R/L85Q (Fc fusion)”, the MFI at 33.3 nM in the assay with human CTLA-4 (human) [5] was determined as 311000 MFI; with PD-L1 (human) [6], 67100 MFI.

For “CD80 H18Y/E35D/M47L/V68M/E95V/L97Q IgV-Fc (Fc fusion)”, the Fold change to WT CD80 stood at 11.7 fold with human CTLA-4 (human) [8], 286 fold with PD-L1 (human) [10] and 0.5 fold with CD28 (human) [11]. Further, the MFI at 33.3 nM with human CTLA-4 (human) [8] stood at 20500 MFI; in the assay with PD-L1 (human) [10], 14800 MFI; in the assay with CD28 (human) [11], 14.5 MFI. Further, the Ratio of PDL1:CD28 with PD-L1 (human) [9] came to 1020.

“CD80 E35D/M47L IgV-Fc (inert) (Fc fusion)”: in the assay with CD28 (human) [1], the Jurkat/IL2 reporter RLU at 50 nM, CHO/OKT3 aAPC without PD-L1 amounted to 817 RLU. Further, the IL-2 release, primary T cells + K562/OKT3/PD-L1, 100 nM in the assay with CD28 (human) [3] and in the assay with PD-L1 (human) [4] was 7530 each time.

In the assay with CD28 (human) [1], “CD80 E35D/D46V/L85Q IgV-Fc (inert) (Fc fusion)” yielded a Jurkat/IL2 reporter RLU at 50 nM, CHO/OKT3 aAPC without PD-L1 of 720 RLU. The IL-2 release, primary T cells + K562/OKT3/PD-L1, 100 nM with CD28 (human) [3] and in the assay with PD-L1 (human) [4] was 1430 throughout.

On to “CD80 H18Y/E35D/V68M/L85M/R94Q IgV-Fc (Fc fusion)”, for which the Fold change to WT CD80 with human CTLA-4 (human) [8] came out at 11.3 fold; in the assay with PD-L1 (human) [10] it was 280 fold; with CD28 (human) [11], 0.4 fold. Also, the MFI at 33.3 nM in the assay with human CTLA-4 (human) [8] is 19800 MFI; with PD-L1 (human) [10] it was 14400 MFI; with CD28 (human) [11], 14 MFI. In the assay with PD-L1 (human) [9], the Ratio of PDL1:CD28 is 1040.

As to “CD80 E35D/M47I/L70M IgV-Fc (inert) (Fc fusion)”, the Jurkat/IL2 reporter RLU at 50 nM, CHO/OKT3/PD-L1 aAPC with CD28 (human) [1] and in the assay with PD-L1 (human) [2] was 2630 RLU throughout. This substance had a Jurkat/IL2 reporter RLU at 50 nM, CHO/OKT3 aAPC without PD-L1 with CD28 (human) [1] of 600 RLU. Moreover, the IL-2 release, primary T cells + K562/OKT3/PD-L1, 100 nM with CD28 (human) [3] and with PD-L1 (human) [4] was 8390 each time.
